Measured values published in paper PMC5995387, “Binding of EphrinA5 to RET receptor tyrosine kinase: An in vitro study” (PLoS ONE, 2018).
Values joined by “and” are separate entries in the source; they are usually repeats but may differ in a detail not shown here. Equal entries are not always repeated.

Tests used:
[1] = target: EphA3-Fc (Mus musculus) (UniProt P29319); details: cited from earlier work
[2] = target: EphA4 LBD (Homo sapiens) (UniProt P54764); assay: SPR; details: cited from earlier work
Chain of EphA4 LBD (Homo sapiens) (P54764 30-209): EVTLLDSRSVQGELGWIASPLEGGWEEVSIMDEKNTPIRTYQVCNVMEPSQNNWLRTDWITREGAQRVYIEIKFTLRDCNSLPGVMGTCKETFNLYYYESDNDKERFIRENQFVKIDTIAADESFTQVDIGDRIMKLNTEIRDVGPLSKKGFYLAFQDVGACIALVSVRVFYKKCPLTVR

[3] = target: T1, zebrafish GDNF family receptor alpha 1 extracellular domain (zGFRα1^ECD), Flag-His8-tagged (zebrafish (Danio rerio), UniProt Q98TT9 31-351); assay: native gel or EMSA; Blue Native PAGE, 4-20% gradient gel, Coomassie-stained; purified proteins mixed and incubated 30 min at room temperature, run at 4 °C; zefn-A5^ECD 8 μM, molar ratio 2:1:1:1:1 (zefn-A5^ECD:zRET^ECD:zGDNF:zGFRα1^ECD:mEphA4^LBD); band of the ternary complex checked by LC-MS/MS; details: both partners purified
T1 construct: GDNF family receptor alpha 1, zebrafish, extracellular domain, residues 31-351 of NCBI NP_571805.1; not shown: Flag, N-terminal, kept; His8, N-terminal, kept
T1 sequence (looked up): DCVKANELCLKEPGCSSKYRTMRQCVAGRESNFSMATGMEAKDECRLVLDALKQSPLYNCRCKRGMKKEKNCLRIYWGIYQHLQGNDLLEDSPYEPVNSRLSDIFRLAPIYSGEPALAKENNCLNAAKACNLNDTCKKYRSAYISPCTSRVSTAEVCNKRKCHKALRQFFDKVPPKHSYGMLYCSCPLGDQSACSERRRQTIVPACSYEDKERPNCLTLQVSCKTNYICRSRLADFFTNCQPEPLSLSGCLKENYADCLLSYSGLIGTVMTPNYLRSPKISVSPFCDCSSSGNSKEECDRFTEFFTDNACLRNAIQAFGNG

[4] = target: T2, zebrafish ephrinA5b extracellular domain (zefn-A5^ECD), Flag-His8-tagged (zebrafish (Danio rerio), UniProt P79728 21-204); assay: BLI; BLItz, zefn-A5^ECD (140 μM) immobilised on Ni-NTA biosensor; SEC buffer with 0.5% Tween-20; 2 min association, 3 min dissociation; Kd from plateau values, one-site total binding model; details: both partners purified
T2 construct: ephrin-A5b, zebrafish, extracellular domain, residues 21-204 of NCBI NP_571101.1; thrombin cleavage site between the tags and the protein (pK503.9 vector); also called Danio rerio efn-A5b; efn-A5b; not shown: Flag, N-terminal, kept; His8, N-terminal, kept
T2 sequence (looked up): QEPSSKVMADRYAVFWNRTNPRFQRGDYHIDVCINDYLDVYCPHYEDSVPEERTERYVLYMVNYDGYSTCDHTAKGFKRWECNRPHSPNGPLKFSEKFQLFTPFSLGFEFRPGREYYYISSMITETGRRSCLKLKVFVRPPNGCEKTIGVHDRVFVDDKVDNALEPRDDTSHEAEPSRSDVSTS

Chain of EphA3-Fc (Mus musculus) (P29319 21-540): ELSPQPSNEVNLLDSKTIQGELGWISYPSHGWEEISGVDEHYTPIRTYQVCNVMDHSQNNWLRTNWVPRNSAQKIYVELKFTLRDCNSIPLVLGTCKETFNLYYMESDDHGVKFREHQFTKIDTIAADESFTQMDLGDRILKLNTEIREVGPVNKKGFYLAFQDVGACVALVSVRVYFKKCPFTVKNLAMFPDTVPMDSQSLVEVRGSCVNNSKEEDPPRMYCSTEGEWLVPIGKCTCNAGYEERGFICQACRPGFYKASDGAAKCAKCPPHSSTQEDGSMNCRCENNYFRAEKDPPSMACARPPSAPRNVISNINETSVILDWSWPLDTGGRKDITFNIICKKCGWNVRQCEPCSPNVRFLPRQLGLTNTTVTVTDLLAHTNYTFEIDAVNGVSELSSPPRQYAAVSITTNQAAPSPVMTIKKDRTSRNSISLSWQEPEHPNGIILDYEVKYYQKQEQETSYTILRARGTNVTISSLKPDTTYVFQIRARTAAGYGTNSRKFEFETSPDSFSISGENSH

## ephrinA5 ECD (from UniProt O08543)
[1]
  Kd: 0.008 µM

## ephrinA5 ECD (from UniProt P52803)
[2]
  Kd: 0.36 µM

B1: zebrafish RET extracellular domain (zRET^ECD), Flag-His8-tagged (domain or fragment, zebrafish (Danio rerio), UniProt A8E7C6 22-626, looked up)
chain: GLYFPQRLYTENIYVGQQQGSPLLQVISMREFPTERPYFFLCSHRDAFTSWFHIDEASGVLYLNKTLEWSDFSSLRSGSVRSPKDLTLKVGVSSTPPMKVMCTILPTVEVKLSFINDTAPSCGQVELSTLCFPEKISNPHITENREPGALRQLRRFTHMSICPNYTISYGVVAGSSVPFAVDDSTSELVVTAQVDREEKEVYHLDIVCMVRTERNLEEVFRSLHVNIYDEDDNSPYVNGTDTEDVLVEFDRSEGTVFGTLFVYDRDTTPVYPTNQVQNKLVGTLMTNDSWIKNNFAIEHKFREEKAIFGNVRGTVHEYKLKLSQNLSVTEQRSFLLGYLVNDTTFPGPEGTVLLHFNVTVLPVPIRFSNVTYSFTVSQKATTYSQIGKVCVENCQKFKGIDVTYQLEIVDRNITAEAQSCYWAVSLAQNPNDNTGVLYVNDTKVLRRPECQELEYVVIAQEQQNKLQAKTQLTVSFQGEADSLKTDEPRFPACAEKRQRGDCEATRGLGAPTGRCQWRQGRDKGISKRYSTCSPNLGTCPDGYCDAIESKNISICPQDCSSEAIIGGYERDLYGIKAGHGTCYCFEGKCFCERDEPEDDICNDMC
notes: RET receptor tyrosine kinase, zebrafish, extracellular domain, residues 22-626 of NCBI NP_858048.2; thrombin cleavage site after the tags (pK503.9 vector); A mixture of monomer, dimer and some higher oligomers by native PAGE; not shown: Flag, N-terminal, kept; His8, N-terminal, kept
[3]
  stoichiometry N: ~1 zRET^ECD per zGFRα1^ECD (ternary complex with zGDNF)

B2: mouse EphA4 ligand-binding domain with C-terminal human IgG1 hinge and Fc (mEphA4^LBD) (Fc fusion, mouse (Mus musculus), UniProt Q03137-1 29-210, looked up)
chain: NEVTLLDSRSVQGELGWIASPLEGGWEEVSIMDEKNTPIRTYQVCNVMEASQNNWLRTDWITREGAQRVYIEIKFTLRDCNSLPGVMGTCKETFNLYYYESDNDKERFIRESQFGKIDTIAADESFTQVDIGDRIMKLNTEIRDVGPLSKKGFYLAFQDVGACIALVSVRVFYKKCPLTVRN
notes: concentrations were calculated for the monomeric form. pMA152a vector; also called Mus musculus EphA4; source: Hi5 insect cells, purified (Protein-A Sepharose); not shown: Fc (human IgG1, with hinge region), C-terminal, kept
[4]
  Kd: 0.18 ± 0.01 µM

B3: mature zebrafish glial cell-derived neurotrophic factor (zGDNF), N-terminal Flag tag (ligand, zebrafish (Danio rerio), UniProt Q98TU0 90-235, looked up)
chain: SSDVEPQMKRDRVRQKAAANTEKSGGRGRGERKRSRGRARSRDDRVKGQGRGCLLKEIHLNVTDLDLGYRTKEELIFRYCSGPCHDAETNYDKILNNLTHNKKLDKDTPSRTCCRPIAFDDDISFLDDSLEYHTLKKHSAKKCACV
notes: GDNF, zebrafish, mature zGDNF, residues 90-236 of NCBI NP_571807.1; Written as zGDNF2 (dimer) in the complexes; concentrations were calculated for the monomeric form; also called zGDNF2; source: Hi5 insect cells (baculovirus), secreted, purified as previously described [24]; not shown: Flag, N-terminal, kept
[3]
  stoichiometry N: 1 zGDNF per zGFRα1^ECD (2:2, binary complex) and ~2 zGDNF per zGFRα1^ECD (ternary complex with zRET^ECD)
